Measurements from publication PMC9001643 (Scientific Reports, 2022).

Target: the molecule itself
Test: crystal structure; His6-dmJMJD7.Mn(II).ligand complexes (2OG, succinate, N-oxalylglycine, 2,4-PDCA, N-oxalyl-D-alanine, N-oxalyl-D-phenylalanine); sitting drops at 25 °C, 0.1 M Bis-Tris pH 5.4, 0.3 M magnesium chloride, 18-23% PEG 3350; two molecules per asymmetric unit, space group P2_(1)

B1: Drosophila melanogaster Jumonji domain-containing 7 (His6-dmJMJD7) (enzyme, UniProt Q9VU77 1-316, looked up)
chain: MSEVERALDVLLQEAEELCIGSSVVELDRIPTALEFCREFYSKNQPVVIRKALNWPAIGKWTPKYLIEALGDRSVDVAITPNGYADGLATQNGQEYFVLPLETKMKLSEVVRRLDDPTGAVHYIQKQNSNLSVDLPELAADLRVSDLDFAQQSFNKPPDAVNFWLGDERAVTSMHKDPYENVYCVISGHKDFVLIPPHQLSCVPRGIYPTGVYKTSDSGQFYIEPLRDEEGSDQFTEWVSVDPLSPDLAKYPEYARAKPLKVRVHAGDILYLPNYWFHHVSQSHKCIAVNFWYDLDYDSRYCYYRMLEQMTSARSG
notes: JMJD7 of Drosophila melanogaster, full length, aa 1-316, UniProt Q9VU77, cloned into pET28a; Homodimer in the crystals; the two monomers are covalently linked by a disulfide bond Cys37-Cys37'; Crystallised with Mn(II) in place of Fe(II) and with 2OG, succinate or a 2OG analogue; also called JMJD7_DROME; not shown: His6, N-terminal, kept
  stoichiometry N: 2
